Our source for the IC50 in an MBP M125 assay (inhibition of β-secretase activity) and enzyme inhibition relative to the Swedish sequence values is US7514408.

This experiment addresses β-secretase (enzyme preparation not stated for the inhibitor assays) (human) (UniProt P56817). Description: cell-based or functional assay.

β-secretase (enzyme preparation not stated for the inhibitor assays) (human), sequence (P56817 46-501 limits assumed): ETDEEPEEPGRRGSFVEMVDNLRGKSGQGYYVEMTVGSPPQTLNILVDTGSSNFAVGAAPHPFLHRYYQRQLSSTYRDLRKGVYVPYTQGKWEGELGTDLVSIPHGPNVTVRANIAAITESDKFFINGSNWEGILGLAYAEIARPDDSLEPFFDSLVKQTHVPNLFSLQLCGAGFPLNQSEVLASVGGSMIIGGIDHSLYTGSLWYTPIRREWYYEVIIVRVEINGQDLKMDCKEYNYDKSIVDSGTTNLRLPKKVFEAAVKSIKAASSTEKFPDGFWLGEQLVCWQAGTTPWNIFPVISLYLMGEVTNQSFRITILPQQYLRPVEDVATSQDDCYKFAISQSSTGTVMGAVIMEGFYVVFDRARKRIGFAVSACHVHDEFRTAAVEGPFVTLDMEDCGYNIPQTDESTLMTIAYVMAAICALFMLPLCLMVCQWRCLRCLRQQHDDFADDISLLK

Substance “Swedish mutant P13-P5′ peptide with P1′ aspartic acid replaced with a valine (D→V) (from UniProt P05067 659-676)” had an IC50 in an MBP M125 assay (inhibition of β-secretase activity) of 3000 nM and an enzyme inhibition relative to the Swedish sequence of 100 times.
